Assay results published in patent publication US10881709B2, “Immune system modulators and compositions” (Canimguide Therapeutics AB, priority 2015, dated 2021).

What follows are substances tested against P3028 (SEQ ID NO: 185) (Homo sapiens, UniProt P02768) (assay: PEPSCAN ELISA (rampo assay): binding of His-tagged P3028 to immobilised peptides). Details: truncations, deletions, glycine substitutions.
Description: Based on the structure of peptide P28R, additional peptides were identified that bind to P3028. The additional binders included deletions, truncations, and or amino acid substitutions of peptide P28R. Binding of peptides to P3028 was assayed using PEPSCAN technology. PEPSCAN technology, or “rampo” assays are biochemical binding assays, details of which are provided below:
A peptide microarray screening technology was used to measure binding of P28R (SEQ ID NO: 2) and variants of P28R to P3028 (SEQ ID NO: 185). In this technology libraries of synthetic peptides are synthesized and covalently linked onto polypropylene microarray chips. The linear peptides were synthesized onto credit-card format polypropylene cards (455 peptide formats/card) as described by (Timmerman et al., 2004) using standard Fmoc-chemistry using hexamethylenediamine (HMDA) as linker and deprotection using trifluoroacetic acid (TFA) with scavengers.
The binding of His-tagged P3028 to each peptide on the card was tested in an ELISA assay. The 455-well credit card format polypropylene cards containing the covalently linked peptides were incubated with His-tagged P3028 peptide (PGE73) solution consisting of 0.5 μg/mL diluted in blocking solution (4% horse serum, 5% ovalbumin (w/v) in PBS/1% Tween). After washing, the peptides were incubated with a monoclonal mouse anti-His-tag antibody (Novagen®, 70796-3, diluted 1/1000 in the incubation buffer) and subsequently after washing with a rabbit-anti-mouse antibody peroxidase (Rampo) conjugate (Southern Biotech®, 6175-05, diluted 1/1000), for one hour at 25° C. After washing, the peroxidase substrate 2,2′-azine-di-3-ethylbenzthiazoline sulfonate (ABTS) and 2 μL of 3% H2O2 were added. The binding capacity of the mAb was measured as a color development at 405 nm (optical density, OD405). The color development was quantified with a charge-coupled device (CCD)—camera and an image processing system.
The OD405-values obtained by a CCD-camera was considered as raw data values (“rampo values,” “rampo units,” or “rampo scores”). The values mostly ranged from 0 to 3000, a log scale similar to 1 to 3 of a standard 96-well plate ELISA-reader. First the CCD-camera made a picture of the card before peroxidase coloring and then again a picture after the peroxidase coloring. […] These values were copied into an excel file and labeled as a raw data file. One follow-up manipulation was allowed. Sometimes a well can contain an air-bubble resulting in a false-positive value. If manual inspection of the cards detect an air-bubble the value are set to 0 for that well.
A library of peptides tested for binding to peptide P3028 included all substitutions for each position of the peptide P28R (SEQ ID NO: 2) (i.e., 19 substitutions for each position). The results of the binding experiments are shown in FIGS. 27, 28, 29 and 30 and Table 5.1. […] P28R had rampo values ranging between 262 and 460 with a mean value of 370. […] In addition, M and S in position 7 (SEQ ID NOs: 9 and 10, respectively), and Q and M in position 11 (SEQ ID NOs: 15 and 16, respectively) all have rampo values over 700.
For each position of P28R, the rampo scores of the group of 19 different peptides containing an L-amino acid substitution were compared to the rampo score of a control sample P28R peptide (SEQ ID NO: 2) for that group. Single-amino acid substitutions having a rampo score greater than or substantially equivalent to P28R were identified. As used herein, a rampo score “substantially equivalent to P28R” is a rampo score that is at least 98% of the rampo score of P28R. Thus, variants of P28R having equivalent or better binding to P3028 were identified.

rampo score / affinity to P3028 compared with P28R	Substance
comparable rampo score	FVKL [SEQ ID NO: 63]
comparable to P28R	KKGDTFFVKLSLFTER [SEQ ID NO: 287]
comparable to P28R	KKLDGFFVKLSLFTER [SEQ ID NO: 95]
comparable to P28R	KKLDTFFVGLSLFTER [SEQ ID NO: 98]
comparable to P28R	KKLDTFFVKLGLFTER [SEQ ID NO: 99]
retained a high affinity	KKLDTFFVKLSLFTE [SEQ ID NO: 34]

Substance	rampo score / affinity to P3028 compared with P28R
KKFFVKLSLFTER [SEQ ID NO: 76]	comparable to, or higher than peptide P28R
KKLDTFFVKLSFTER [SEQ ID NO: 68]	comparable to, or higher than peptide P28R
KKLDTFGVKLSLFTER [SEQ ID NO: 96]	comparable to P28R
KKLDTFVKLSLFTER [SEQ ID NO: 65]	comparable to, or higher than peptide P28R
KKLTFFVKLSLFTER [SEQ ID NO: 64]	comparable to, or higher than peptide P28R

Each substance was assayed on PBMCs (assay: IL-2 induced proliferation of PBMCs, 3H-thymidine incorporation (human ex vivo model)). Details: PBMCs from healthy control samples, 7 days, 3H-thymidine.
Format: cell-based
Description: 100 μl of RPMI1640 supplemented with 200 IU/ml penicillin, […] streptomycin, 4 mM L-glutamine (all from Sigma® Chemical Co. MO, US) and 20% heat-inactivated human serum (autologous or from cancer patients) were added to uncoated, HSA or HSA/IgG coated tissue culture microtiter plates. PBMC, isolated from healthy individuals or patients with metastatic renal cell carcinoma, were diluted in RPMI/2% HSA at a concentration of 5×10^5/ml and 100 μl were added to the microtiter wells. Interleukin-2 (IL-2, Proleukin®, Chiron®, NL), at a final concentration of 120 IU/well, was added to some wells. Cells were cultured for 7 days in a humidified, 5% CO2-atmosphere at 37° C. Proliferation was assayed by incorporation of 1.6 μCi/well of [^3H]-thymidine (Amersham® Int., UK) during the last 18 hrs. Mean values of dpm (disintegrations per minute) of triplicates were used for the calculations.
Cultures for IL-2 induced proliferation was set up with PBMC from healthy donors and autologous serum as described above with the exception that PBMC were first pre-incubated for 30 min at room temperature with the indicated albumin peptides at a concentration of 10 μg/ml.
Round-bottomed, 96-well tissue culture plates (Costar®, Corning® Inc. NY, US) were pre-coated with HSA only or HSA and pooled human IgG for intravenous injection (Gammagard®, Baxter AS, DK) as follows; HSA was diluted in RPMI1640 without supplements to a concentration of 10 mg/ml. A mixture of 1 mg/ml IgG in a solution of 9 mg/ml HSA in RPMI (HSA/IgG) was also prepared. 200 μl of HSA or HSA/IgG were then added to each well of the plate. The plates were incubated at 4° C. for 30 minutes after which the wells were washed twice with 200 μl of RPMI1640. The coated plates were used immediately. 100 μl of RPMI1640 supplemented with 200 IU/ml penicillin, […] streptomycin, 4 mM L-glutamine (all from Sigma® Chemical Co. MO, US) and 20% heat-inactivated human serum (autologous) were added to the HSA or HSA/IgG coated tissue culture microtiter wells. PBMC, isolated from healthy individuals, were diluted in RPMI/2% HSA and peptides were added directly to the cell suspension at a concentration of 10 μg/ml. One hundred μl of this cell suspension (5×10^4 lymphocytes) was then added per well providing a final concentration of 5 μg/ml peptide per well. IL-2 (Proleukin®, Chiron®, NL), at a final concentration of 120 IU/well, was added to the wells. Cells were cultured for 7 days in a humidified, 5% CO2-atmosphere at 37° C. Proliferation was assayed by incorporation of 1.6 μCi/well of [^3H]-thymidine (Amersham® Int., UK) during the last 18 hrs. Mean values of dpm (disintegrations per minute) of triplicates were used for the calculations.
The model included PBMCs isolated from venous blood samples from healthy blood donors (control samples) or cancer patients. One hundred pI of culture medium (RPMI 1640 Dutch's modification (Gibco®, InVitrogenAB®, Stockholm, Sweden) supplemented with 200 IV/ml penicillin, 200 ug/ml streptomycin, 4 mM L-glutamine (all from Sigma® Chemical Co. MO, US) and 20% heat-inactivated human serum) were added to roundbottomed, 96-well tissue culture plates (Costar®, Corning® Inc. NY, US). […] Control sample wells without IL-2 was set up in parallel. […]
The effect of different peptides on IL-2 induced proliferation was analyzed in the human ex vivo model, using PBMCs from healthy control samples. […] Proliferation was measured as incorporation of ^3H-thymidine during the final 18 hours. […]

Substance	inhibition of IL-2 induced proliferation
KVPQVSTPTLVEVSR (listed as Homo sapiens) [P3029]	none

What follows are substances tested on PBMCs from healthy control person (assay: PBMC activation (CD69/CD71, flow cytometry) in RPMI plus 10% human AB serum). Details: 40 μg/mL, 24 hours, healthy PBMCs.
Format: cell-based
Description: The activity of peptide P28R (SEQ ID NO: 2) and modifications of P28R was studied in a human ex vivo model using PBMCs in short term cultures, 24 or 48 hours. Effects of P28R and modifications of P28R on PBMCs from a healthy control person were studied. Activation was measured as percentage of cells with enhanced marker CD69 using flow cytometry. PBMCs were incubated with the peptides (40 μg/mL) for 24 hours in RPMI plus 10% human AB serum.
As observed in Example 37, P28R (SEQ ID NO: 2) can stimulate PBMCs from healthy controls in short term cultures when RPMI plus 10% normal human AB serum is used as culture medium. Truncations of P28R were also assessed for their ability to activate PBMCs. PBMCs were incubated with the peptides (40 μg/mL) for 24 hours in RPMI plus 10% human AB serum. PBMC activation was measured as percent cells with enhanced expression of either CD69 (FIG. 42A) or CD71 (FIG. 42B) using flow cytometry. Two experiments were performed for each peptide.
Effects of modified peptides on activation of PBMCs from healthy control person were assessed. Activation was determined as percentage of cells with enhanced marker CD69 or CD71 using flow cytometry. PBMCs were incubated with the peptides (40 μg/mL) for 48 hours in RPMI plus 10% human AB serum.

Substance	PBMC activation, enhanced CD69 or CD71
KKLDTFFPKLSLFTER [SEQ ID NO: 329]	did not activate

Same assay, conditions: 40 μg/mL, 24 hours, healthy control person

Substance	PBMC activation, cells with enhanced CD69
KKLDTFFVDLSLFTER [SEQ ID NO: 569]	did not stimulate
KKLDTFFVKLSLFTFR [SEQ ID NO: 571]	did not stimulate
KKLDTFFVNLSLFTER [SEQ ID NO: 518]	did not stimulate
KKLDTVMVKLQLMTER [compound 30680]	induced activation
KSLDTFFVKLSLFTER [SEQ ID NO: 510]	did not stimulate

Same assay, conditions: 40 μg/mL, 48 hours, healthy control person

Substance	PBMC activation, enhanced CD69 and CD71
RKLDTFFVKLSLFTERRR [compound 32814]	stimulatory effect in short term cultures similar to that of P28R
